What was measured:
[1] = substrate: OC[C@H]1O[C@@H](O[C@H]2[C@H](O)[C@@H](O)C(O)O[C@@H]2CO)[C@H](O)[C@@H](O)[C@@H]1O; experiment: BG kinetics, cellobiose hydrolysis assay (HPLC) with glucose as competitive inhibitor, yEdQ885-BG; format: biochemical, Aspergillus niger; conditions: other: cellobiose substrate, pH 4.8, 50° C.
Description: (§1) The beta-glucosidase (BG) gene from Aspergillus niger (Accession #CAB75696.1) was integrated into the TR3 yeast background at the T4U3 genomic site.
(§2) High resolution enzyme assays and kinetic testing comparing the beta-glucosidases described herein and commercial enzyme preparations were pursued to more clearly quantify differences in mutant BG enzymes compared to the wild type BG enzyme. Based on data presented herein, BG mutant YEdQ885 was selected for further analysis and compared to the BG activity present in commercial preparations of SP188 (Novozymes) and Accellerase® BG (DuPont) as well as wild type BG.
(§3) The kinetic properties of beta glucosidase are important for cellulosic hydrolysis, since in commercial situations a wide range of substrate concentrations and different product inhibition conditions will be encountered. In this example, a Michaelis-Menten kinetics model was used to describe BG kinetics. To determine these kinetic properties, BG activity assays using standard substrates pNPG and cellobiose were employed. yEdQ745-BG (wild type) and yEdQ885-BG (improved), were compared with two commercial BGs, A-BG (Accellerase®) BG from Dupont) and S-BG (Novozymes SP188 from Sigma).
BG activity assay using cellobiose is the other standard assay to measure BG or cellobiase activity, which utilizes hydrolysis of cellobiose by cellobiase into two molecules of glucose, the last step of enzymatic hydrolysis of cellulose. One cellobiase unit (commonly termed as CBU) is defined as the amount of enzyme that converts […] of cellobiose or produces 2 μmol of glucose per min. Briefly, to determine BG activity, 25 μL of diluted enzyme in 50 mM citrate buffer (pH 4.8) equilibrated to 50° C. was mixed with 25 μL cellobiose (or cellobiose/glucose mixture for the kinetic study) to start the reaction. The mixture was incubated at 50° C. for 10 min, and the reaction was terminated by incubating the mixture at 99° C. for 5 min. Different methods are available to measure the glucose produced in the assays. For the kinetic study, HPLC was used.
To determine kinetic properties using cellobiose substrate, duplicate assays with cellobiose concentrations ranging from 0.47 to 15 mM and glucose concentrations of 0, 0.9, 4.5, 6.75, and 8.1 (for A-BG) or 9 (for all the other three BGs) g/L were performed. As for pNPG substrate, the range of cellobiose substrate concentration was chosen to show detectable activity at the lowest substrate concentration and saturation stage at high substrate concentration. However, in contrast to the pNPG substrate, when there was still some activity left at glucose concentration up to 36 g/L, most of the BG activity was lost at an inhibitor level of 9 g/L when cellobiose substrate was used. […]

[2] = substrate: O=[N+]([O-])c1ccc(O[C@@H]2O[C@H](CO)[C@@H](O)[C@H](O)[C@H]2O)cc1; experiment: BG kinetics, pNPG hydrolysis assay with glucose as competitive inhibitor, yEdQ885-BG; format: biochemical, Aspergillus niger; conditions: other: pNPG substrate, pH 5.0, 50° C.
Description: as §1, §2, §3
BG activity assay using pNPG is one of the two commonly used standard assays to measure BG activity, which utilizes hydrolysis of p-nitrophenyl-β-D-glucopyranoside (pNPG) by BG into a yellow colored product, p-nitrophenol (pNP), that has a strong absorbance at 405 nm. One pNPG unit is defined as the amount of enzyme that produces 1 μmol of pNP per min. Briefly, to determine BG activity, 25 μL of diluted enzyme in 200 mM sodium acetate buffer (pH 5.0) was mixed with 25 μL of the same buffer and 25 μL of RO water (or glucose solution for the kinetic study) and the mixture was preincubated at 50° C. for 5 min. The reaction was initiated by adding 25 μL of 10 mM pNPG in 200 mM sodium acetate buffer (pH 5.0) and the mixture was incubated at 50° C. for 10 min. The reaction was then terminated by adding 100 μL of 0.25 M sodium carbonate, and the amount of pNP produced was determined by measuring absorbance at 405 nm using a predetermined calibration curve. […]
To determine the kinetic properties, a competitive inhibition mechanism was hypothesized as proposed in the literature (Chauve et al, 2010; Krogh et al, 2010). […] The turnover number, Kcat, can be calculated by Equation (2), where [Et] is the total amount of enzyme.
Conventionally, linearization methods can be used to determine the kinetic parameters based on Equation (1). […] Thus, Vmax, Km and Ki can be determined simultaneously from this fitting process, and Km/Ki can then be calculated. Kcat can be obtained by Equation (2) and Kcat/Km can be calculated accordingly. […]

B1: Aspergillus niger beta-glucosidase (CAB75696.1, SEQ ID NO:2) improved variant yEdQ885-BG (Aspergillus niger; Y363C/Y375F/Y610F) (protein)
chain: DELAYSPPYYPSPWANGQGDWAQAYQRAVDIVSQMTLDEKVNLTTGTGWELELCVGQTGGVPRLGVPGMCLQDSPLGVRDSDYNSAFPAGMNVAATWDKNLAYLRGKAMGQEFSDKGADIQLGPAAGPLGRSPDGGRNWEGFSPDPALSGVLFAETIKGIQDAGVVATAKHYIAYEQEHFRQAPEAQGFGFNISESGSANLDDKTMHELYLWPFADAIRAGAGAVMCSYNQINNSYGCQNSYTLNKLLKAELGFQGFVMSDWAAHHAGVSGALAGLDMSMPGDVDYDSGTSYWGTNLTISVLNGTVPQWRVDDMAVRIMAAYYKVGRDRLWTPPNFSSWTRDECGYKYYYVSEGPFEKVNQYVNVQRNHSELIRRIGADSTVLLKNDGALPLTGKERLVALIGEDAGSNPYGANGCSDRGCDNGTLAMGWGSGTANFPYLVTPEQAISNEVLKHKNGVFTATDNWAIDQIEALAKTASVSLVFVNADSGEGYINVDGNLGDRRNLTLWRNGDNVIKAAASNCNNTIVVIHSVGPVLVNEWYDNPNVTAILWGGLPGQESGNSLADVLYGRVNPGAKSPFTWGKTREAYQDFLVTEPNNGNGAPQEDFVEGVFIDYRGFDKRNETPIYEFGYGLSYTTFNYSNLEVQVLSAPAYEPASGETEAAPTFGEVGNASDYLYPSGLQRITKFIYPWLNGTDLEASSGDASYGQDSSDYLPEGATDGSAQPILPAGGGPGGNPRLYDELIRVSVTIKNTGKVAGDEVPQLYVSLGGPNEPKIVLRQFERITLQPSEETKWSTTLTRRDLANWNVEKQDWEITSYPKMVFVGSSSRKLPLRASLPTVH
notes: strain yEdQ885, BG acid/base mutant #8
B1 gave a Km [1] of 1450 ± 260 µM, a Vmax [1] of 11.6 µmol/min/mg and a kcat [1] of 23.1 s⁻¹. The kcat/Km [1] was 16000 M⁻¹ s⁻¹, the Km [2] was 640 ± 30 µM and the Vmax [2] was 6.33 µmol/min/mg. The kcat [2] was 12.7 s⁻¹ and the kcat/Km [2] was 19800 M⁻¹ s⁻¹.

— patent US10077436B2, “Beta-glucosidase enzymes for increased biomass saccharification” (Edeniq, Inc., priority 2013, dated 2018)
